Results taken from PMC8994517 (Nature, 2021).

Target: Human Hsp90α (human, UniProt P07900 1-732)
Assay: cryo-EM structure

stoichiometry N: 1 p23 per Hsp90 dimer
B1: Human p23 (natural protein, UniProt Q15185 1-160, looked up)
chain: MQPASAKWYDRRDYVFIEFCVEDSKDVNVNFEKSKLTFSCLGGSDNFKHLNEIDLFHCIDPNDSKHKRTDRSILCCLRKGESGQSWPRLTKERAKLNWLSVDFNNWKDWEDDSDEDMSNFDRFSEMMNNMGGDEDVDLPEVDGADDDSQDSDDEKMPDLE
